Test [1] concerns the target T1, purified human CD45 ectodomain (human CD45RABC antigen) (human, UniProt P08575 26-577).
T1 construct: also called hCD45
T1 sequence: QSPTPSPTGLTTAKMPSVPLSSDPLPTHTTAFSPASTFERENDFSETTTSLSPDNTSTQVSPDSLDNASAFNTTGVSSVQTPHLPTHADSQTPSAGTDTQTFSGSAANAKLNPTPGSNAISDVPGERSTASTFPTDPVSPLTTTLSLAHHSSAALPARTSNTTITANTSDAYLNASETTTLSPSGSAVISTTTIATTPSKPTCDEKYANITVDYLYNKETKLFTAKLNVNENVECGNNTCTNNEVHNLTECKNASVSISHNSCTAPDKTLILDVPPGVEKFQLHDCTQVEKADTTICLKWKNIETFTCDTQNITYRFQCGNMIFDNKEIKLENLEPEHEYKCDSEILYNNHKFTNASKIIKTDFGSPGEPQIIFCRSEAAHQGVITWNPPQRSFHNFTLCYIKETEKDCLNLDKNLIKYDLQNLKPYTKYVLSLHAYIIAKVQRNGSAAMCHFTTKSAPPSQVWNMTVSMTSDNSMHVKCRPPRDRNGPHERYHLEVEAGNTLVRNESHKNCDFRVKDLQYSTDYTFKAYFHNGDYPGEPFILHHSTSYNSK
In words: BLI (Octet Red96), IgG on anti-human Fc sensor, 100 nM CD45 ectodomain, 1:1 fit. In general terms: In BLI a coated tip is dipped into the sample, and binding shifts an interference pattern.

Test [2] deals with T2, cynomolgus CD45 on live cells (primary cynomolgus PBMCs) (cynomolgus monkey).
T2 construct: Endogenous CD45 on PBMCs; also called cyno CD45; Cyno PBMC
T2 chain: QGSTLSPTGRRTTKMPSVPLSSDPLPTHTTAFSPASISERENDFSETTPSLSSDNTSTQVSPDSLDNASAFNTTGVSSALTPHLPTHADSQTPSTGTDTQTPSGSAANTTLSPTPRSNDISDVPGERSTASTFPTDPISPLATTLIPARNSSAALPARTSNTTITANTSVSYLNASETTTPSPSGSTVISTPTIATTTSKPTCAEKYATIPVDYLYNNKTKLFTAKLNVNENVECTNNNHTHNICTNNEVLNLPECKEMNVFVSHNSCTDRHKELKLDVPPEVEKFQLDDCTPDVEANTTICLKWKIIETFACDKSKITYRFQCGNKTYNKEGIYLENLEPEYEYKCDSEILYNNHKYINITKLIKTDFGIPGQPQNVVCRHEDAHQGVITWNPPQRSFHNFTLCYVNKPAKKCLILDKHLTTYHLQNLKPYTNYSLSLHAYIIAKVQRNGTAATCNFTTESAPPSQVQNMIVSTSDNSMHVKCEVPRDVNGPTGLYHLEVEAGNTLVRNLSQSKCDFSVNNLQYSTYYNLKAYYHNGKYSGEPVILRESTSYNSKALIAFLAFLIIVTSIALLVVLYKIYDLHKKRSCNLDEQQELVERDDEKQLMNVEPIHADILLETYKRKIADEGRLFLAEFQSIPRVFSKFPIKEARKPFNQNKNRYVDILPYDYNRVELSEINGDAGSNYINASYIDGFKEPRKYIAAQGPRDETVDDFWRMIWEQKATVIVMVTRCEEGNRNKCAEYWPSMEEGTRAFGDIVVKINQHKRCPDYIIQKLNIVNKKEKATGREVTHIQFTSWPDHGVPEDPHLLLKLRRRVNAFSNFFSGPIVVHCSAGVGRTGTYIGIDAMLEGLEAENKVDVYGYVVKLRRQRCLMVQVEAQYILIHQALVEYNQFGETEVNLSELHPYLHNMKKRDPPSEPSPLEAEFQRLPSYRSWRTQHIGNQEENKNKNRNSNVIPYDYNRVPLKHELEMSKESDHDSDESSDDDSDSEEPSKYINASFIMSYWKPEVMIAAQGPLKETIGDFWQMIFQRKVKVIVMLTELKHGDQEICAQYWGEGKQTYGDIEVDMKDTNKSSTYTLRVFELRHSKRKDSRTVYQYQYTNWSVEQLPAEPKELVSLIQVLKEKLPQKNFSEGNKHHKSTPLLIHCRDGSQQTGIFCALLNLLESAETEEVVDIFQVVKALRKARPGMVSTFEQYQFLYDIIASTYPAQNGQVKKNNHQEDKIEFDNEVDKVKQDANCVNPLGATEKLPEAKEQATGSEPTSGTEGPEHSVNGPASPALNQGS
In words: flow cytometry on cynomolgus PBMCs, overnight 37 C, AF488 anti-human IgG. Background: In flow cytometry, cells or beads pass a laser one at a time.

Test [3] deals with T3, human CD45 on live cells (REH-1 cells, primary human PBMCs) (human, UniProt P08575 26-1306).
T3 construct: Endogenous CD45
T3 sequence: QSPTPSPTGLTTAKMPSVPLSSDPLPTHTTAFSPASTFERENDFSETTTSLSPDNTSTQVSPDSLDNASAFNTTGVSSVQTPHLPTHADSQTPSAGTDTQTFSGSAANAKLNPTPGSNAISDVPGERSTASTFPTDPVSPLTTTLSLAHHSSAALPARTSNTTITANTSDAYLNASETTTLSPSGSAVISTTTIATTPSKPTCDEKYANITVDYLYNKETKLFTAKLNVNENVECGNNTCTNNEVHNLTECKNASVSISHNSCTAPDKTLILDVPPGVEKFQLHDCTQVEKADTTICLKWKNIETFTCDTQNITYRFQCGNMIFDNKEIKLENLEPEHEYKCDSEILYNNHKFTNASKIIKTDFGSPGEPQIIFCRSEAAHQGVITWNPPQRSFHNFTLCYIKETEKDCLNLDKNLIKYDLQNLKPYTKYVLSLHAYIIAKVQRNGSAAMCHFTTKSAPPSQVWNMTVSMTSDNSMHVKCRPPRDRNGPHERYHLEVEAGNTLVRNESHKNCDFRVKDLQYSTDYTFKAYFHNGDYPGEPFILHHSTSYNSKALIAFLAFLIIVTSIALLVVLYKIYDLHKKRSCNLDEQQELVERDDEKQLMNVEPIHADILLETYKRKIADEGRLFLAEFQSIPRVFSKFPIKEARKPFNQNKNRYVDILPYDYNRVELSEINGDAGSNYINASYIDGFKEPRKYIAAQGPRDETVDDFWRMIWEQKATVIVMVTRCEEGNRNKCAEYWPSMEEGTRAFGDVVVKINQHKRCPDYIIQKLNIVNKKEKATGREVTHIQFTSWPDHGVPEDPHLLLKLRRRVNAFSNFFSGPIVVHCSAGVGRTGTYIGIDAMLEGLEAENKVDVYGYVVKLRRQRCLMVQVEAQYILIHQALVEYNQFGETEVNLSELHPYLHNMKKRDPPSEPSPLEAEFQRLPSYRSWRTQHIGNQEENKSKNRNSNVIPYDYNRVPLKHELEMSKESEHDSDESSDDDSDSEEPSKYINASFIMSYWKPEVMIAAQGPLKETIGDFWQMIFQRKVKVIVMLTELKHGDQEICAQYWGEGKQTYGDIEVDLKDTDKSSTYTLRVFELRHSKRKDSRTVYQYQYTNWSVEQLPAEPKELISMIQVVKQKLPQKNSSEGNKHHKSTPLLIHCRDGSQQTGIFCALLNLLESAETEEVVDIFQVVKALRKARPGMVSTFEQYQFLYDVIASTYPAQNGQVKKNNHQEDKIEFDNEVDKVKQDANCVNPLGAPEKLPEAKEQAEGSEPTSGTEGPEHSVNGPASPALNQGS
In words: flow cytometry on human PBMCs, overnight 37 C, AF488 anti-human IgG.

Test [4] has as its target T3, human CD45 on live cells (REH-1 cells, …). In words: flow cytometry on REH-1 cells, overnight 37 C, AF488 anti-human IgG.
For test [5], the target named is T2, cynomolgus CD45 on live cells (primary …). The test is described as follows: flow cytometry on PBMCs; cyno EC50 against human EC50.
Test [6] concerns the target T3, human CD45 on live cells (REH-1 cells, …). In words: flow cytometry on human PBMCs, overnight 37 C, AF488 anti-human IgG. The source holds these as a separate data set.
Test [7] has as its target T2, cynomolgus CD45 on live cells (primary …). In words: flow cytometry on cynomolgus PBMCs, overnight 37 C, AF488 anti-human IgG.
Test [8] shares this target. The test is described as follows: flow cytometry on PBMCs; cyno EC50 against human EC50.
Test [9] concerns the target T3, human CD45 on live cells (REH-1 cells, …). The test is described as follows: flow cytometry on human PBMCs, overnight 37 C, AF488 anti-human IgG. The source holds these as a separate data set.
Test [10] addresses T2, cynomolgus CD45 on live cells (primary …). In words: flow cytometry on cynomolgus PBMCs, overnight 37 C, AF488 anti-human IgG.
Test [11] concerns the target T3, human CD45 on live cells (REH-1 cells, …). The test is described as follows: flow cytometry on human PBMCs, overnight 37 C, AF488 anti-human IgG. The source holds these as a separate data set.
Test [12] deals with T1, purified human CD45 ectodomain (human …). In words: BLI (Octet Red96), antibody on anti-human Fc sensor, 100 nM human CD45 ectodomain, 1:1 fit.
The target in test [13] is T2, cynomolgus CD45 on live cells (primary …). In words: flow cytometry on cynomolgus PBMCs, overnight 37 C, AF488 anti-human IgG.
Test [14] has the same target. The test is described as follows: flow cytometry on PBMCs; cyno EC50 against human EC50.

Residue numbers refer to the chain shown, from its start. In names and notes the source's numbering stands. Read-outs that look alike come from different tables or passages of the source.

B1: Antibody 1 (Ab1) (antibody, V domains shown)
VH: QVQLVESGGGLVKPGGSLRLSCAASGFTFSSYSMNWVRQAPGKGLEWVSYISSSSSTIYYADSVKGRFTISRDNAKNSLYLQMNSLRAEDTAVYYCARGGQYYYDSSRYGEVAFDIWGQGTMVTVSS
VL: not shown
notes: Fully human IgG from yeast display; also called Parent 1; parent clone Ab1
What is called koff is the first-order rate constant of dissociation. High values mean fast dissociation, low ones slow dissociation. As usually defined, the kon is the rate constant with which the complex forms. Read a high kon as faster complex formation. In test [1], B1 displayed a koff of 0.0499 s⁻¹ and a kon of 458000 M⁻¹ s⁻¹.

B2: Ab5 (D265C LALA H435A) (antibody, human IgG1, kappa, L234A L235A, V domains shown)
VH: B1 VH with Q1E, K13Q, S30E, S31A, S53L, S55G, S56A, Y59H, D105T, R108D
VL: DIVMTQSPLSLPVTPGEPASISCRSSQSLVSSGYNYLDWYLQKPGQSPQLLIYFGSSRASGVPDRFSGSGSGTDFTLKISRVEAEDVGVYYCMQRRRTPWSFGGGTKVEIKR
As usually defined, the EC50 is the concentration that produces a half-maximal response. A lower EC50 goes with a more potent agent. B2: the EC50 in test [2] turned out to be 1.3 nM; in test [3], 1.4 nM; in [4], 0.3 nM.

B3: Ab7 (D265C LALA H435A) (antibody, human IgG1, kappa, L234A L235A, V domains shown)
VH: B1 VH with S30G, S31G, S53I, S55G, S56A, Y59T, R108D
VL: DIVMTQSPLSLPVTPGEPASISCRSSQSLVSSGYNYLDWYLQKPGQSPQLLIYFGSSRASGVPDRFSGSGSGTDFTLKISRVEAEDVGVYYCMQRRRTPPFTFGGGTKVEIKR
In the case of B3, the 50% effective concentration (EC50) in test [2] was 1.3 nM; in test [3] it was 1 nM; in test [4], 0.2 nM.

B4: AbC_D265C_LALA_H435A (antibody, human IgG1, kappa, L234A L235A, V domains shown)
VH: EVQLVESGGGLVQPGGSLRLSCAASGFTFNNYWMTWVRQAPGKGLEWVSSISSSGGSIYYPDSVKDRFTISRDNAKNSLYLQMNSLRAEDMAVYYCARLYYYDGGGDAWGQGTLVTVSS
VL: GIQMTQSPSSLSASVGDRVTITCKASQDINKYLDWYQQKPGKAPKLLIYNTNNLHTGIPSRFSGSGSGTDYTLTISSLQPEDFATYYCLQHISRWTFGGGTKVEIKR
notes: also called Fc variant of AbC
As for B4, the “Cyno/Human Ratio (EC50)” value in [5] was 1.49 ratio. The EC50 in [6] was 2.2 nM; in [7] it was 3.3 nM.

B5: AbA_D265C_LALA_H435A (antibody, human IgG1, kappa, L234A L235A, V domains shown)
VH: EVQLLESGGGLVQPGGSLRLSCAASGFTFNNYWMTWVRQAPGKGLEWVSSISSSGGSIYYPDRVKGRFTISRDNSKNTLYLQMNSLRAEDTAVYYCARDERWAGAMDAWGQGTTVTVSS
VL: DIQMTQSPSSLSASVGDRVTITCKASQNINKNLDWYQQKPGKAPKLLIYETNNLQTGVPSRFSGSGSGTDFTLTISSLQPEDFATYYCYQHNSRFTFGQGTKLEIKR
notes: also called Fc variant of AbA
For B5, the “Cyno/Human Ratio (EC50)” value in [5] is 1.49 ratio. In addition, the EC50 in test [6] is 2.3 nM; in test [7] it was 3.4 nM.

B6: Antibody B (AbB) (antibody, IgG1, V domains shown)
VH: EVQLVESGGGLVQPGGSLRLSCAASGFTFTNFWMAWIRQAPGKGLEWVASISSSGGSIYYPDSVKDRFTISRDNSKNTLYLQMNSLRAEDTAVYYCVKFHHYSGGGDAWGQGTLVTVSS
VL: DIQMTQSPSSLSASVGDRVTITCKASQNINKYLDWYQQKPGKAPKLLIHYTNNLHTGIPSRFSGSGSGTDYTLTISSLQPEDFATYYCLQHSSRWTFGGGTKVEIK
notes: also called humanized clone AbB
One may read the Kd as the free concentration of one partner at which half of the binding sites on the other are occupied at equilibrium, for simple one-to-one binding. For the molecule B6, the “Fold Cyno v/s Human (EC50)” value in test [8] was found to be 1.9 fold. The 50% effective concentration (EC50) in [9] was determined as 0.67 nM; in [10] it was 1.42 nM; in test [11], 0.76 nM; in test [13], 1.12 nM. In test [12], this molecule returned a dissociation constant (Kd) of 5.46 nM. Further, the koff in test [12] is 0.000239 s⁻¹. This molecule also came in with a kon in [12] of 43800 M⁻¹ s⁻¹. Also, the “Fold Cyno vs Human (EC50)” value in [14] was determined as 1.7 fold.

B7: AbB_D265C_LALA_H435A (antibody, human IgG1, kappa, L234A L235A, V domains shown)
VH: B6 VH
VL: B4 VL with G1D, D28N, Y49H, N50Y, I92S
notes: also called Fc variant of AbB
On to B7, for which the “Cyno/Human Ratio (EC50)” value in test [5] was 1.36 ratio. For the same molecule, the results for the EC50 in test [6] and in test [7] were 2.2 nM and 2.9 nM, respectively.

These data come from patent US20220267441A1 (VOR BIOPHARMA, published 2022).
